These results are taken from PMC5177617, “Complement Protein C1q Interacts with DC-SIGN via Its Globular Domain and Thus May Interfere with HIV-1 Transmission” (Frontiers in Immunology, 2016).

Where only a bound is given, the exact number is not on record here.

Assay [1] deals with soluble DC-SIGNR tetramer (entire extracellular domain including the α-helical neck region) (UniProt Q9H2X3). As to the kind of experiment: ELISA; DC-SIGN or DC-SIGNR (tetramer or monomer) coated (5, 2.5, 1.25, 0.625 µg/well, carbonate-bicarbonate buffer pH 9.6); ghA, ghB, ghC or mutants 2.5 µg/100 µl in 50 mM NaCl, 100 mM Tris-HCl pH 7.5, 5 mM CaCl2; 37°C […] then 4°C […]; detected with anti-MBP; percent binding against the wild-type module as 100%. In general terms: In an ELISA, binding on a coated surface is turned into a signal by an enzyme label.

Assay [2] concerns the target soluble DC-SIGN tetramer (entire extracellular domain including the α-helical neck region) (UniProt Q9NNX6). The description is as above.
Assay [3] addresses T1, soluble DC-SIGN tetramer (entire extracellular domain including the α-helical neck region) (UniProt Q9NNX6 59-404).
T1 construct: DC-SIGN, entire extracellular domain (α-helical neck region and carbohydrate recognition domain); also called DC-SIGN ECD; tetrameric DC-SIGN
T1 sequence (looked up): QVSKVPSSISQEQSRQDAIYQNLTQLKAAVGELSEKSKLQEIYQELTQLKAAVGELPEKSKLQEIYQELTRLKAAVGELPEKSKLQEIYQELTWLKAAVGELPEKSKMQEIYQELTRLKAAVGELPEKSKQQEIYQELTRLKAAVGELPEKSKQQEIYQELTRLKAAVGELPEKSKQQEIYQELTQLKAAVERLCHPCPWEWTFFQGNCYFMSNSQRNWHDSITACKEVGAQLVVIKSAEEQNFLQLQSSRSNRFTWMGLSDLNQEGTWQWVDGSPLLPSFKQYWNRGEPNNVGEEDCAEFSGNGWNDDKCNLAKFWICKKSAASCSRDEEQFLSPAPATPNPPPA
As to the kind of experiment: ELISA; DC-SIGN or DC-SIGNR (tetramer or monomer) coated (5, 2.5, 1.25, 0.625 µg/well, carbonate-bicarbonate buffer pH 9.6); ghA, ghB, ghC or mutants 2.5 µg/100 µl in 50 mM NaCl, 100 mM Tris-HCl pH 7.5, 5 mM CaCl2; 37°C 1.5 h then 4°C 1.5 h; detected with anti-MBP; percent binding against the wild-type module as 100%. To be noted: both partners purified.

For assay [4], the target named is T2, soluble DC-SIGNR tetramer (entire extracellular domain including the α-helical neck region) (UniProt Q9H2X3 71-399).
T2 construct: DC-SIGNR (DC-SIGN-related), entire extracellular domain (α-helical neck region and carbohydrate recognition domain); also called DC-SIGNR ECD
T2 sequence (looked up): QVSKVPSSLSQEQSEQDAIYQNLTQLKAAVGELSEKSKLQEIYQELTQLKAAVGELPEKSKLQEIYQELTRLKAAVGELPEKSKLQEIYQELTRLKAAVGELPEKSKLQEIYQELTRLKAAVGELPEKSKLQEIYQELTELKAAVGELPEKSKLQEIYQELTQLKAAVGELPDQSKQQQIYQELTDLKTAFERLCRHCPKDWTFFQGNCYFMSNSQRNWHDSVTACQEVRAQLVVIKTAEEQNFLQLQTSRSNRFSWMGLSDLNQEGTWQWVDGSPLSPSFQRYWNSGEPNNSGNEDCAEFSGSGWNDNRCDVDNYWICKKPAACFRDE
Described as above. The conditions noted are these: both partners purified.

The molecule “ghB substitution mutant Arg^B114Gln (from UniProt P02746 28-253) (domain or fragment)” gave a % binding (wild-type module = 100%) in assay [1] of 50.3%. In assay [2], this molecule returned a % binding (wild-type module = 100%) of 52.5% and a % reduction in binding against wild-type ghB of 80%.
“ghB substitution mutant Arg^B163Glu (from UniProt P02746 28-253) (domain or fragment)”: the % binding (wild-type module = 100%) in assay [1] was determined as 65.7%; in assay [2] it was 48.3%.
The corresponding values for “ghB substitution mutant His^B117Asp (from UniProt P02746 28-253) (domain or fragment)” are 41% and 36.4%.
Consider “ghC substitution mutant Arg^156Glu (from UniProt P02747 29-245) (domain or fragment)”, for which the % binding (wild-type module = 100%) in assay [1] is 75.8%; in assay [2], 101%.
Take “ghB substitution mutant Arg^B129Ala (from UniProt P02746 28-253) (domain or fragment)”: the figures for the % binding (wild-type module = 100%) in assay [1] and in assay [2] were 92.5% and 75%, respectively.
Regarding “ghC substitution mutant His^101Ala (from UniProt P02747 29-245) (domain or fragment)”, the % binding (wild-type module = 100%) is 113% in assay [1] and 90.2% in assay [2].
In assay [1], “ghA substitution mutant Arg^A162Glu (from UniProt P02745 23-245) (domain or fragment)” returned a % binding (wild-type module = 100%) of 94.8% and a % reduction in binding against wild-type ghA (at 5 µg of DC-SIGNR) of 15%. Moreover, in assay [2], the % binding (wild-type module = 100%) turned out to be 66.4%.
Consider “ghB substitution mutant Arg^B163Ala (from UniProt P02746 28-253) (domain or fragment)”, for which the % binding (wild-type module = 100%) in assay [1] was 120%; in assay [2], 68.8%.
As to “ghB substitution mutant Tyr^B175Leu (from UniProt P02746 28-253) (domain or fragment)”, in assay [1], the % binding (wild-type module = 100%) worked out at 37.2% and the % decrease in binding against wild-type ghB (at 0.625 µg of DC-SIGNR) is under 90%. In assay [2], the % binding (wild-type module = 100%) was determined as 37.9%, the % decrease in binding against wild-type ghB (at 0.625 µg of DC-SIGN) was under 90% and the % reduction in binding against wild-type ghB turned out to be 82%.
As for “ghC substitution mutant Leu^170Glu (domain or fragment)”, the % binding (wild-type module = 100%) in assay [1] came to 79.8%; in assay [2], 78.3%.
In the case of “ghB substitution mutant ArgB114Ala (from UniProt P02746 28-253) (domain or fragment)”, in assay [1], the % binding (wild-type module = 100%) is 61.4%. In addition, in assay [2], the % binding (wild-type module = 100%) stood at 57.4% and the % reduction in binding against wild-type ghB was found to be 80%.
“ghA substitution mutant Arg^A162Ala (from UniProt P02745 23-245) (domain or fragment)”: the % binding (wild-type module = 100%) in assay [1] was found to be 73.2%; in assay [2], 77.7%.
In the case of “ghB substitution mutant Arg^B129Glu (from UniProt P02746 28-253) (domain or fragment)”, the figures for the % binding (wild-type module = 100%) in assay [1] and in assay [2] were 137% and 93.9%, respectively.

B1: recombinant globular head module ghB of human C1q, fused to maltose-binding protein (domain or fragment, UniProt P02746 117-253, looked up)
chain: KATQKIAFSATRTINVPLRRDQTIRFDHVITNMNNNYEPRSGKFTCKVPGLYYFTYHASSRGNLCVNLMRGRERAQKVVTFCDYAYNTFQVTTGGMVLKLEQGENVFLQATDKNSLLGMEGANSIFSGFLLFPDMEA
notes: globular head region of the B chain of human C1q (ghB module); source: E. coli BL21, purified (amylose resin)
Regarding B1, the “% binding (wild-type module = 100%)” value in assay [3] and in assay [4] was 100% each time.

B2: ghB substitution mutant Leu^B136Gly (domain or fragment)
chain: KATQKIAFSATRTINVPLRRDQTIRFDHVITNMNNNYEPRSGKFTCGVPGLYYFTYHASSRGNLCVNLMRGRERAQKVVTFCDYAYNTFQVTTGGMVLKLEQGENVFLQATDKNSLLGMEGANSIFSGFLLFPDMEA
With B2, the “% binding (wild-type module = 100%)” value in assay [3] turned out to be 47.7%; in assay [4], 54%.

B3: recombinant globular head module ghA of human C1q, fused to maltose-binding protein (domain or fragment, UniProt P02745 110-245, looked up)
chain: KDQPRPAFSAIRRNPPMGGNVVIFDTVITNQEEPYQNHSGRFVCTVPGYYYFTFQVLSQWEICLSIVSSSRGQVRRSLGFCDTTNKGLFQVVSGGMVLQLQQGDQVWVEKDPKKGHIYQGSEADSVFSGFLIFPSA
notes: globular head region of the A chain of human C1q (ghA module); as I recall ghA is residues 88-223 of the mature A chain with MBP at the N-terminus; source: E. coli BL21, purified (amylose resin)
Turning to B3, the “% binding (wild-type module = 100%)” value in assay [3] and in assay [4] was 100% throughout.

B4: recombinant globular head module ghC of human C1q, fused to maltose-binding protein (domain or fragment, UniProt P02747 115-245, looked up)
chain: KQKFQSVFTVTRQTHQPPAPNSLIRFNAVLTNPQGDYDTSTGKFTCKVPGLYYFVYHASHTANLCVLLYRSGVKVVTFCGHTSKTNQVNSGGVLLRLQVGEEVWLAVNDYYDMVGIQGSDSVFSGFLLFPD
notes: globular head region of the C chain of human C1q (ghC module); as I recall ghC is residues 87-217 of the mature C chain with MBP at the N-terminus; source: E. coli BL21, purified (amylose resin)
Regarding B4, the “% binding (wild-type module = 100%)” value in assay [3] and in assay [4] was 100% each time.
